Test results as given in patent US20170165365A1 (SYMPHOGEN A S, published 2017).

T1: human HER4 antigen (human, UniProt Q15303 26-649, limits assumed)
T1 construct: Antigen coated for ELISA
T1 sequence (looked up): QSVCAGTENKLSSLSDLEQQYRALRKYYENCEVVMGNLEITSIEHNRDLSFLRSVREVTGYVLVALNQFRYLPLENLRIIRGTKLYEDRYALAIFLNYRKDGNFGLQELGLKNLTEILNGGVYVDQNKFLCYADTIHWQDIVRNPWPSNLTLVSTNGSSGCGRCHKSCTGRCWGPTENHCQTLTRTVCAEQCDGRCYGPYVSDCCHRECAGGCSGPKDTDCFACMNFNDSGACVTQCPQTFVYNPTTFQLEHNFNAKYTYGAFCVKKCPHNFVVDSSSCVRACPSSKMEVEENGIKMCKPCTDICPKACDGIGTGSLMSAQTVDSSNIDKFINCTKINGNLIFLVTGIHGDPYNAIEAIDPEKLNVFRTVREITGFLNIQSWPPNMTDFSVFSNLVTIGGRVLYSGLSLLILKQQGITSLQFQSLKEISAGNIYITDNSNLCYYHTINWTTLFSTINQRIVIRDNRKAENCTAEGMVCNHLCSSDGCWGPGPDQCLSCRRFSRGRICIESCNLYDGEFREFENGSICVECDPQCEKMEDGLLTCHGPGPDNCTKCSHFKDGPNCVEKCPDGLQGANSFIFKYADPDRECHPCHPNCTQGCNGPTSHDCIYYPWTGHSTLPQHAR

T2: murine HER4 antigen (mouse, UniProt Q61527 26-652, limits assumed)
T2 construct: In-house antigen coated for ELISA; also called mouse HER4
T2 sequence (looked up): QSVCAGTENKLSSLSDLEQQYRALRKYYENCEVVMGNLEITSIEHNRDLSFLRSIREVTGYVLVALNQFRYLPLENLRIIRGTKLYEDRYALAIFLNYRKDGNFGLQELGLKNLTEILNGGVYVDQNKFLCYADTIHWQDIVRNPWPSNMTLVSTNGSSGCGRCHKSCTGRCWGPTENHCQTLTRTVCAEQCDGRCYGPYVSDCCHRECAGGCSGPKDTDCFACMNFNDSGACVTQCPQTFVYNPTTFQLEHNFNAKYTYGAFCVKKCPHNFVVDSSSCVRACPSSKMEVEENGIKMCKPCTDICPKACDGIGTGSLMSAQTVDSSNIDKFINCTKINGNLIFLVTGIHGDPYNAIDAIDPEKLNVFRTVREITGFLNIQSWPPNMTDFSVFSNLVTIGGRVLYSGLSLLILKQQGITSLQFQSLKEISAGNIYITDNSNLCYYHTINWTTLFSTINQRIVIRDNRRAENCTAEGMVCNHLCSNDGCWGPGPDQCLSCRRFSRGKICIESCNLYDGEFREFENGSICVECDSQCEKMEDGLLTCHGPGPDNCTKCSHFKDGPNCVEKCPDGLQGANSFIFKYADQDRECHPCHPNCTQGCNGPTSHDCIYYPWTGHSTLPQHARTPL


Experiments:
mouse HER2 antigen = target: T3, mouse HER2 antigen (mouse, UniProt P70424 23-653, limits assumed); assay: ELISA, coated mu HER2
T3 construct: In-house antigen coated for ELISA; also called mouse antigen; murine HER2
Experimental: (§1) Antibody-antigen binding was measured by ELISA with coated antigens. Human antigens were obtained from Sino Biologicals. All other antigens were produced in-house by transient expression in CHO or HEK293 cells. Chimeric and humanized antibodies, as well as an isotype control antibody, were incubated with the coated antigens at different concentrations. After wash, bound antibodies were detected by HRP-(horse radish peroxidase)-conjugated secondary antibodies.

mouse EGFR antigen = target: T4, mouse EGFR antigen (mouse, UniProt Q01279 25-647, limits assumed); assay: ELISA, coated mu EGFR
T4 construct: In-house antigen coated for ELISA; also called mouse antigen; murine EGFR
Experimental: as §1

cynomolgus EGFR antigen [1] = target: T5, cynomolgus EGFR antigen (cynomolgus monkey, UniProt A0A2K5WK39 25-645); assay: ELISA, coated cy EGFR
T5 construct: In-house antigen; also called cynomolgus antigen
Experimental: as §1

mouse HER3 antigen = target: T6, mouse HER3 antigen (mouse, UniProt Q61526 20-641, limits assumed); assay: ELISA, coated mu HER3
T6 construct: In-house antigen coated for ELISA; also called mouse antigen; murine HER3
Experimental: as §1

[2] = target: T7, human HER2 antigen (Sino Biologicals) (human, UniProt P04626 23-652); assay: ELISA, coated hu HER2
T7 construct: Bought soluble antigen; also called human antigen
Experimental: as §1

[3] = target: T8, human HER3 antigen (Sino Biologicals) (human, UniProt P21860 20-643); assay: SPR (ProteOn XPR36), IgG captured by anti-human Fc, soluble monovalent antigen, 1:1 fit
T8 construct: Bought soluble antigen; also called human antigen
Experimental: (§2) Kinetic binding analysis of the purified humanized variants was performed on a ProteOn™ XPR36 biosensor (BioRad, USA) employing an IgG capture assay as described by Canziani et al. (Anal. Biochem. (2004) 325:301-307) that allows for measurement of antibody affinities of whole IgG molecules against soluble antigen under monovalent conditions. Briefly, approximately 5000 resonance units (RU) of a monoclonal mouse anti-human IgG Fc antibody (GE Healthcare, Denmark) was conjugated to a GLC chip surface (BioRad, USA) according to the manufacturer's instructions, followed by capture of individual antibodies of the invention or a negative control on the anti-Fc sensor surface. […] Next, 250 μl monovalent antigen (Sino Biologicals) was injected at a flow rate of 50 μl/min in serial threefold dilutions from 100 nM stock to generate response curves. The chip surface was regenerated between cycles by stripping the captured antibody/antigen complexes off the surface with a 10-second injection of 3 M MgCl₂ (GE Healthcare, Denmark) repeated three times. Finally, binding responses were fitted to a Langmuir 1:1 binding model for calculation of the on-rate (kon or ka), off-rate (koff or kd) and affinity (KD) constants using double referencing.

cynomolgus HER3 antigen [4] = target: T9, cynomolgus HER3 antigen (cynomolgus monkey, UniProt G7PIG5 20-643); assay: as above
T9 construct: In-house antigen; also called cynomolgus antigen
Experimental: as §2

human HER4 antigen = target: T1, human HER4 antigen; assay: ELISA, coated hu HER4
Experimental: as §1

[5] = target: T10, human EGFR antigen (Sino Biologicals) (human, UniProt P00533 25-645); assay: ELISA, coated hu EGFR
T10 construct: Bought soluble antigen; also called human antigen
Experimental: as §1

murine HER4 antigen = target: T2, murine HER4 antigen; assay: ELISA, coated mu HER4
Experimental: as §1

cynomolgus HER3 antigen [6] = target: T9, cynomolgus HER3 antigen; assay: ELISA, coated cy HER3
Experimental: as §1

[7] = target: T8, human HER3 antigen (Sino Biologicals); assay: ELISA, coated hu HER3
Experimental: as §1

[8] = target: cynomolgus HER2 antigen (cynomolgus monkey); assay: SPR (ProteOn XPR36), IgG captured by anti-human Fc, soluble monovalent antigen, 1:1 fit
cynomolgus EGFR antigen [9] = target: T5, cynomolgus EGFR antigen; assay: as above
Experimental: as §2

T9 sequence (G7PIG5 entry or part of it): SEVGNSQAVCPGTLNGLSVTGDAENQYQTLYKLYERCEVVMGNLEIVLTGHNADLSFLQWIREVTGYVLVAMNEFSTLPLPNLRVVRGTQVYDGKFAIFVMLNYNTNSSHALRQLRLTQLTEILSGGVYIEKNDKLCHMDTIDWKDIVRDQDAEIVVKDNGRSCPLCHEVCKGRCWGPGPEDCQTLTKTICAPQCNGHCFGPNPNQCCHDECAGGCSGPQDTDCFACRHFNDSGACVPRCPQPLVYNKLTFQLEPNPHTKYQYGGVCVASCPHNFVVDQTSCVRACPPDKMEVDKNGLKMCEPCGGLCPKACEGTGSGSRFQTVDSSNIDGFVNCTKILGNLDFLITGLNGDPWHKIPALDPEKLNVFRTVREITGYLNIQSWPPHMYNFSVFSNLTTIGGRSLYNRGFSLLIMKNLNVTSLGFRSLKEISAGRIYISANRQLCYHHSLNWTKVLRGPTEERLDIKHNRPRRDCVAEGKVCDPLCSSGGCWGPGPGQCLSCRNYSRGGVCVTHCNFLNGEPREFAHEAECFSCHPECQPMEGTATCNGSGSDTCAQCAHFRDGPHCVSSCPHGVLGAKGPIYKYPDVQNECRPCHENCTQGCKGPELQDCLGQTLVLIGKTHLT
T6 sequence (Q61526 20-641 limits assumed): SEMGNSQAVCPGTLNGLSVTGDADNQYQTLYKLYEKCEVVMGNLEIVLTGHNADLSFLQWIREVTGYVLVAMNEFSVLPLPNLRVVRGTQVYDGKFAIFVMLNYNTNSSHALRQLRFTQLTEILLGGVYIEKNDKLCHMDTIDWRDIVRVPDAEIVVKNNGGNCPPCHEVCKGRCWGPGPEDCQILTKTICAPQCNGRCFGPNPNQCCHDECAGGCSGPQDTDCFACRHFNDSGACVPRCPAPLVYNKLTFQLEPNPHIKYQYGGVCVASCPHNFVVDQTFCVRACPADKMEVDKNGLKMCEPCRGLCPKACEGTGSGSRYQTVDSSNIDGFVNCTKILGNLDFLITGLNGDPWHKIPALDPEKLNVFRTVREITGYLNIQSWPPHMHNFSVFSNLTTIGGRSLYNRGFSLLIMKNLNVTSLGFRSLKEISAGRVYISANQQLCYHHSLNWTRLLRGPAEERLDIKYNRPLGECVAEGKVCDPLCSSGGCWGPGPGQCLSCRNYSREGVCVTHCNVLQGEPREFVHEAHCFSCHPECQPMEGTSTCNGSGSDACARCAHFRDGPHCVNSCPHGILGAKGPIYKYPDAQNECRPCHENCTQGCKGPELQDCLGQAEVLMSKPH
T3 sequence (P70424 23-653 limits assumed): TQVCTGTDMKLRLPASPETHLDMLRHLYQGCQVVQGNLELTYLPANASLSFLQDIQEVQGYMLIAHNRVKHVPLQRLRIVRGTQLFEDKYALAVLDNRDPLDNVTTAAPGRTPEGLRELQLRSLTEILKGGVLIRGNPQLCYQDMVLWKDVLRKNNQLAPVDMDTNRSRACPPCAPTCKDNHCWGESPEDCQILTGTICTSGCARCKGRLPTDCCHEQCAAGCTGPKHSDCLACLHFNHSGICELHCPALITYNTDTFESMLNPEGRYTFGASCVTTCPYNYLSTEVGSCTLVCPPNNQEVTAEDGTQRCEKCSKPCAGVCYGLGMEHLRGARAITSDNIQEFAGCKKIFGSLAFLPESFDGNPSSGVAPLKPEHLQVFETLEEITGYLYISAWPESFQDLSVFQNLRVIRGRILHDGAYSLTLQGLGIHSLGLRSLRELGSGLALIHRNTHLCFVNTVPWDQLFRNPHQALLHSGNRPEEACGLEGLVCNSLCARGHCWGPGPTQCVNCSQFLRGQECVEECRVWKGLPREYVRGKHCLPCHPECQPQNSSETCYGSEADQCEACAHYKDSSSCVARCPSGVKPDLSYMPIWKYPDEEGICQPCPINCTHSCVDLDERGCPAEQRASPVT

| Binder | binding result (mouse HER2 antigen) | binding result (mouse EGFR antigen) | binding result (cynomolgus EGFR antigen [1]) | binding result (mouse HER3 antigen) | binding result [2] | Kd [3] | koff [3] | kon [3] | Kd (cynomolgus HER3 antigen [4]) | koff (cynomolgus HER3 antigen [4]) | kon (cynomolgus HER3 antigen [4]) | binding result (human HER4 antigen) | binding result [5] | binding result (murine HER4 antigen) | binding result (cynomolgus HER3 antigen [6]) | binding result [7] | Kd [8] | koff [8] | kon [8] | Kd (cynomolgus EGFR antigen [9]) |
| --- | --- | --- | --- | --- | --- | --- | --- | --- | --- | --- | --- | --- | --- | --- | --- | --- | --- | --- | --- | --- |
| humanized anti-HER3 antibody 11052 (antibody, V domains shown) VH: QVQLQESGPGLVKPSQTLSLTCTVSGYSITSAYYWNWIRQFPGKGVEWMGYIGYSGRNTYNPSLKNRVTISRDTSKNQFSLKLSSVTAADTAVYYCSREGDYGYSDYWGQGTLVTVSS VL: DIQMTQSPSSLSASVGDRVTVTCRASQDINNYLNWYQQKPGKAVKLLIYYTSRLQSGVPSRFSGSGSGTDYTLTISSLQPEDFATYFCQQSETLPWTFGQGTKLEIK | no binding (tested: 40 nM) | no binding (tested: 40 nM) | no binding (tested: 40 nM) | no binding (tested: 40 nM) | no binding (tested: 40 nM) | 180 pM | 0.00016 s⁻¹ | 870000 M⁻¹ s⁻¹ | 190 pM | 0.00026 s⁻¹ | 1.3e+06 M⁻¹ s⁻¹ | no binding (tested: 40 nM) | no binding (tested: 40 nM) | no binding (tested: 40 nM) | – | – | – | – | – | – |
| humanized anti-HER2 antibody 10704 (antibody, V domains shown) VH: QVQLVQSGAEVKKPGASVKVSCKASGYTFTSHWMHWVRQAPGQGLEWMGNINPSSGGTNYNEKFKSRVTLTVDKSTSTAYMELSSLRSEDTAVYYCARAYYDFSWFVYWGQGTLVTVSS VL: DIQMTQSPSSLSASVGDRVTITCRSSQDISNYLNWYQQKPGKAVKLLMYISRLHSGVPSRFSGSGSGTDYTFTISSLQPEDIATYYCQQGNTLPLTFGGGTKVEIK | no binding (tested: 40 nM) | no binding (tested: 40 nM) | no binding (tested: 40 nM) | no binding (tested: 40 nM) | – | – | – | – | – | – | – | no binding (tested: 40 nM) | no binding (tested: 40 nM) | no binding (tested: 40 nM) | no binding (tested: 40 nM) | no binding (tested: 40 nM) | – | – | – | – |
| humanized anti-HER2 antibody 11145 (antibody, V domains shown) VH: EVQLVESGGGLVKPGGSLRLSCAASGFTFSSYGMSWVRQAPGKGLEWVATISGGGSYTYYPDSVKGRFTISRDIAKSSLYLQMNSLRAEDTAVYYCARKGNYGNYGKLAYWGQGTTVTVSS VL: DIQMTQSPSSLSASVGDRVTITCRASENIYSNLAWYQQKPGKAPKLLIYAATNLATGVPSRFSGSGSGTDYTLTISSLQPEDFASYYCQHFWGTPWTFGQGTKLEIK | no binding (tested: 40 nM) | no binding (tested: 40 nM) | no binding (tested: 40 nM) | no binding (tested: 40 nM) | – | – | – | – | – | – | – | no binding (tested: 40 nM) | no binding (tested: 40 nM) | no binding (tested: 40 nM) | no binding (tested: 40 nM) | no binding (tested: 40 nM) | 12000 pM | 0.00063 s⁻¹ | 53000 M⁻¹ s⁻¹ | – |

The remaining lines, values ahead:

| binding result (mouse HER2 antigen) | binding result (mouse EGFR antigen) | binding result (cynomolgus EGFR antigen [1]) | binding result (mouse HER3 antigen) | binding result [2] | Kd [3] | koff [3] | kon [3] | Kd (cynomolgus HER3 antigen [4]) | koff (cynomolgus HER3 antigen [4]) | kon (cynomolgus HER3 antigen [4]) | binding result (human HER4 antigen) | binding result [5] | binding result (murine HER4 antigen) | binding result (cynomolgus HER3 antigen [6]) | binding result [7] | Kd [8] | koff [8] | kon [8] | Kd (cynomolgus EGFR antigen [9]) | Binder |
| --- | --- | --- | --- | --- | --- | --- | --- | --- | --- | --- | --- | --- | --- | --- | --- | --- | --- | --- | --- | --- |
| no binding (tested: 40 nM) | no binding (tested: 40 nM) | – | no binding (tested: 40 nM) | no binding (tested: 40 nM) | – | – | – | – | – | – | no binding (tested: 40 nM) | – | no binding (tested: 40 nM) | no binding (tested: 40 nM) | no binding (tested: 40 nM) | – | – | – | 590 pM | chimeric anti-EGFR antibody 1277 (antibody, V domains shown, the light chain entry is full length) VH: EVQLVESGGGLVKPGESLKLSCAASGFAFSYSDMSWVRQTPEKRLEWVAYMSSAGDVTFYSDTVKGRFTISRDNAKNTLYLQVSSLKSEDTAIYYCVRHRDVAMDYWGQGTSVTVS VL: DVVMTQTPLSLPVSLGDQASISCRSSQSLVHSNGNTYLHWYLQKPGQSPKLLIYKVSNRFSGVPDRFSGSGSGTDFTLKISRVEAEDLGVYFCSQSTHVPTFGGGTKLEIKR |
| no binding (tested: 40 nM) | no binding (tested: 40 nM) | no binding (tested: 40 nM) | no binding (tested: 40 nM) | – | – | – | – | – | – | – | no binding (tested: 40 nM) | no binding (tested: 40 nM) | no binding (tested: 40 nM) | no binding (tested: 40 nM) | no binding (tested: 40 nM) | 2900 pM | 0.0005 s⁻¹ | 180000 M⁻¹ s⁻¹ | – | chimeric anti-HER2 antibody 4384 (antibody, V domains shown, light chain entry is full length) VH: QVQLQQPGTELVKPGASVKLSCKASGYTFTSHWMHWVKQRPGQGLEWIGNINPSNGGTNYNEKFKSRATLTVDKASSTAYMQLSSLTSEDSAVYYCARAYYDFSWFVYWGQGTLVTVS VL: DIQMTQTSSSLSASLGDRVTISCRSSQDISNYLNWYQQKPDGTVKLLMYISRLHSGVPSRFSGSGSGTEYSLTISNLEQEDIATYFCQQGNTLPLTFGAGTKLELKR |
